Results: patent publication US20260263580A1

Legend:
[1] = molecular target: envelope proteins E1/E2 of the genotype 1a HCV seed stock derived from TNcc-PP-18 (hepatitis C virus genotype 1a, strain TNcc) (UniProt P26664); experiment: cell-based or functional assay
[2] = molecular target: envelope proteins E1/E2 of high-yield genotype 2a recombinant virus J6cc-HI (hepatitis C virus genotype 2a, strain J6cc-HI) (UniProt P26660); experiment: cell-based or functional assay
[3] = molecular target: envelope proteins E1/E2 of the original genotype 3a recombinant virus DBN3acc (hepatitis C virus genotype 3a, strain DBN3acc) (UniProt Q81258); experiment: cell-based or functional assay
[4] = molecular target: envelope proteins E1/E2 of high-yield genotype 1a recombinant virus TNcc-HI (hepatitis C virus genotype 1a, strain TNcc-HI) (UniProt P26664); experiment: cell-based or functional assay
[5] = molecular target: envelope proteins E1/E2 of high-yield genotype 3a recombinant virus DBNcc-HI (hepatitis C virus genotype 3a, strain DBNcc-HI) (UniProt Q81258); experiment: cell-based or functional assay
[6] = molecular target: DBNcc-HI E1/E2 complexes from lysates of HEK293 cells transfected with an E1/E2 expression plasmid (hepatitis C virus genotype 3a, strain DBNcc-HI) (UniProt Q81258); experiment: ELISA on lectin-captured E1/E2 complexes, negative control (FIG. 11)
[7] = molecular target: TNcc-HI E1/E2 complexes from lysates of HEK293 cells transfected with an E1/E2 expression plasmid (hepatitis C virus genotype 1a, strain TNcc-HI) (UniProt P26664); experiment: as above
[8] = molecular target: J6cc-HI E1/E2 complexes from lysates of HEK293 cells transfected with an E1/E2 expression plasmid (hepatitis C virus genotype 2a, strain J6cc-HI) (UniProt P26660); experiment: as above
[9] = molecular target: DBNcc-HI E1/E2 complexes from lysates of HEK293 cells transfected with an E1/E2 expression plasmid (hepatitis C virus genotype 3a, strain DBNcc-HI) (UniProt Q81258); experiment: ELISA on lectin-captured E1/E2 complexes, negative control (FIG. 12)
[10] = molecular target: TNcc-HI E1/E2 complexes from lysates of HEK293 cells transfected with an E1/E2 expression plasmid (hepatitis C virus genotype 1a, strain TNcc-HI) (UniProt P26664); experiment: as above
[11] = molecular target: J6cc-HI E1/E2 complexes from lysates of HEK293 cells transfected with an E1/E2 expression plasmid (hepatitis C virus genotype 2a, strain J6cc-HI) (UniProt P26660); experiment: as above
[12] = molecular target: DBNcc-HI E1/E2 complexes from lysates of HEK293 cells transfected with an E1/E2 expression plasmid (hepatitis C virus genotype 3a, strain DBNcc-HI) (UniProt Q81258); experiment: ELISA on lectin-captured E1/E2 complexes, negative control (FIG. 13)
[13] = molecular target: TNcc-HI E1/E2 complexes from lysates of HEK293 cells transfected with an E1/E2 expression plasmid (hepatitis C virus genotype 1a, strain TNcc-HI) (UniProt P26664); experiment: as above
[14] = molecular target: J6cc-HI E1/E2 complexes from lysates of HEK293 cells transfected with an E1/E2 expression plasmid (hepatitis C virus genotype 2a, strain J6cc-HI) (UniProt P26660); experiment: as above

Row | Substance | fold increased neutralization sensitivity against 1a(TN) [1] | fold increased neutralization sensitivity against 2a(J6) [2] | fold increased neutralization sensitivity against 3a(DBN) [3] | fold increased neutralization sensitivity against 1a(TN) [4] | fold increased neutralization sensitivity against 3a(DBN) [5] | OD at 450 nm [6] | OD at 450 nm [7] | OD at 450 nm [8] | OD at 450 nm [9] | OD at 450 nm [10] | OD at 450 nm [11] | OD at 450 nm [12] | OD at 450 nm [13] | OD at 450 nm [14]
1 | human monoclonal antibody AR3A | 3 fold | 440 fold | 167 fold | 300 fold | 1250 fold |  |  |  |  |  |  |  |  | 
2 | human monoclonal antibody AR4A | 15 fold | 12 fold | 22 fold | 2400 fold | 220 fold |  |  |  |  |  |  |  |  | 
3 | ECL sheep anti-mouse IgG horseradish-peroxidase linked whole antibody (GE Healthcare) |  |  |  |  |  | 0.05 OD | 0.05 OD | 0.05 OD | 0.05 OD | 0.05 OD | 0.05 OD | 0.05 OD | 0.05 OD | 0.05 OD
